The values below come from patent US20040023332A1 (GENEXINE, published 2004).

B1: human IL-12p35 subunit, wild type (ligand, UniProt P29459 23-219, looked up)
chain: RNLPVATPDPGMFPCLHHSQNLLRAVSNMLQKARQTLEFYPCTSEEIDHEDITKDKTSTVEACLPLELTKNESCLNSRETSFITNGSCLASRKTSFMMALCLSSIYEDLKMYQVEFKTMNAKLLMDPKRQIFLDQNMLAVIDELMQALNFNSETVPQKSSLEEPDFYKTKIKLCILLHAFRIRAVTIDRVMSYLNAS
notes: also called hp35
B2: human IL-12p40 mutant hp40-N222L (ligand)
chain: IWELKKDVYVVELDWYPDAPGEMVVLTCDTPEEDGITWTLDQSSEVLGSGKTLTIQVKEFGDAGQYTCHKGGEVLSHSLLLLHKKEDGIWSTDILKDQKEPKNKTFLRCEAKNYSGRFTCWWLTTISTDLTFSVKSSRGSSDPQGVTCGAATLSAERVRGDNKEYEYSVECQEDSACPAAEESLPIEVMVDAVHKLKYELYTSSFFIRDIIKPDPPKNLQLKPLKNSRQVEVSWEYPDTWSTPHSYFSLTFCVQVQGKSKREKKDRVFTDKTSATVICRKNASISVRAQDRYYSSSWSEWASVPCS
notes: NO; 3 already carries N222L; also called Leu-222
B3: human IL-12p40 mutant hp40-N222Q (ligand)
chain: B2 chain with L200Q
notes: NO; 4 already carries N222Q; also called Gln-222

Substitutions are numbered along the chain they refer to. Numbers in names are those of the source.

One test has as its target human IL-12p40 subunit, wild type (human) (UniProt P29460). Nature of the test: IL-12p70 ELISA of lysates of co-transfected COS-7 cells. A general note: ELISA stands for enzyme-linked immunosorbent assay.
For “human IL-12p35 mutant hp35-N251Q (from UniProt P29459 23-219) (ligand)”, the IL-12p70 heterodimer in cell lysates (% of wild type) was determined as 88%.
Consider “human IL-12p35 mutant hp35-N127Q (from UniProt P29459 23-219) (ligand)”, for which the IL-12p70 heterodimer in cell lysates (% of wild type) came out at 72%.
Molecule “human IL-12p35 mutant hp35-N141Q (from UniProt P29459 23-219) (ligand)” gave an IL-12p70 heterodimer in cell lysates (% of wild type) of 90%.
Take “human IL-12p35 double mutant hp35-N127,141Q (from UniProt P29459 23-219) (ligand)”: the IL-12p70 heterodimer in cell lysates (% of wild type) is 71%.
The molecule B1 came in with an IL-12p70 heterodimer in cell lysates (% of wild type) of 100%.

The target of another test is B1. The description is as above. As for the experimental part:
1.5 μg/Ml of tunicamycin was added in some experiments. After incubation for another 24 hours, supernatants and cell pellets were harvested by centrifugation. Supernatants were used for the SEAP assay and cell pellets were resuspended in 200 μl of lysis solution (Promega). The levels of IL-12p70 and IL-12p40 in both supernatants and cell lysates were measured by ELISA (R&D system). For immunoblotting, 10% or 12% sodium dodecyl-sulfate-polyacrylamide electrophoresis (SDS-PAGE) was conducted with supernatants and cell lysates. The proteins separated from the above experiment was electrotransfered to nylon membrane (Amersham). The proteins absorbed to the membrane were obtained by using biotin-labeled human IL-12 antibody (Amersham), horseradish peroxidase (HRP)-labeled streptavidin (PharMingen) and ECL kit (Amersham). The levels of IL-12p70 or IL-12p40 expression were measured by ELISA and presented relatively to the level of wild type, which is arbitrarily set at 100%.
^aTotal 20 μg of each DNA contruct was used for transfection into COS-7 cells by electroporation. For simultaneous transfection of two DNA constructs, 10 μg of each DNA construct was used. ^bThe levels of human and mouse IL-12p70 or IL-12p40 expression were measured by ELISA and presented relative to the wild-type, which is arbitrarily set at 100%. ^cThe equal amount of p70 in each mutant supernatant was used in the IFN-γ induction assay. The levels of induced IFN-γ were measured by ELISA and presented relative to the level of wild type, which is arbitrarily set at 100%. ^dIL-12p40 indicates the monomeric and homodimeric p40 form of IL-12p40, but not the p40 part of IL-12p70. ^eIL-12p70 indicates the heterodimer which consists of IL-12p35 and IL-12p40. ^fThe plasmid backbone used for independent expression of hIL-12p40, hIL-12p35, and their derivatives is pCIN-neo and is descibed as mock. ^g<1 indicates values below the detectable range of ELISA assay. ^hWhen the equal amount of p70 in each indicated mutant (hp40-N135Q) and wild-type supernatant is used in IFN-γ induction assay, the insufficient hp40 in each mutant supernatant compared to wild-type supernatantwas reconstituted with hp40 supernatant obtained after tranfection with hp40 only ⁱNumbers in ( ) mean each amount (μg) of cotransfected plasmid, pCIN-hp40-N222Q and pCIN-hp35.
Regarding “human IL-12p40 mutant hp40-N135Q (from UniProt P29460 23-328) (ligand)”, the IL-12p70 heterodimer in cell lysates (% of wild type) amounted to 99%.
As to “human IL-12p40 mutant hp40-N125Q (from UniProt P29460 23-328) (ligand)”, the IL-12p70 heterodimer in cell lysates (% of wild type) amounted to 97%.
As to B2, the “IL-12p70 heterodimer in cell lysates (% of wild type)” value was determined as 89%.
Still for that read-out and setting: then B3, with 90%.

A further test addresses B3. The test can be described thus: co-transfection of hp40-N222Q plasmid with varied amounts of hp35 DNA, IL-12p70 ELISA.
As to B1, the binding result is given as “binds”.
